Measured values reported in the nanobody polyreactivity screen of Harvey et al. (2022).

Assay: yeast display, Sf9 membrane polyspecificity reagent, FACS + sequencing; frameworks hold sequencing errors
Summary of the method: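 Nanobodies from a synthetic yeast display library (Saccharomyces cerevisiae BJ5465), induced 36–48 hours with galactose, were stained 1 hour at 4 °C with 10% biotinylated, detergent-solubilized Sf9 membrane reagent, enriched on streptavidin microbeads, then FACS-sorted. Anti-HA (expression) and streptavidin (reagent binding) fluorescence set low and high (top ~1%) gates. Polyreactivity labels come from the gate of origin. Genes were colony-PCR amplified, MiSeq 2 × 250 sequenced and filtered by CDR length.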

Sequence	polyreactivity (PSR sort gate)
QVQLVESGGGLVQAGGSLRLSCAASGRTFLTNTMGWYRQAPGKERELVAAISSGGSTKYADSVKGRFTISRDNAKNTVYLQMNSLKPEDTAVYYCAATGWRYGYKYYYWGQGTQVNVSS	high polyreactivity
QDQLVESGGGLVQAGGSLRLSCAPSGFIFDDNAMGWYRQAPGKERELVAAITSGGGSTYYADSVKGRFTISRDNAKNTFYLQMNSLKPEDTAVYYCNKVYGWYSFKWGPTASDYWGQGTQVTVSS	low polyreactivity
QVQLVESGGGLVQAGGSLRLSCAASGRILSSYAMGWYRKAPGKERELVAVISSGGNTYYADSVKGRFTISRDNAKNTVYLQMNSLKPEDTAVYYCAAVRHRQTYTKYNYWGQGTKVTVSS	high polyreactivity
QVQLVESGGGLVQAGGSLRLSCAASGSIFGGYTMGWYRPAPGKERELVAAITKNGGRTYYADSVKGRFTISRDTAKPTVYLQMNSLKPEDTAVYYCAAATSPSWYTWVTYDYWGQGTQVTVSS	high polyreactivity
QVQLVESGGGLVQAGGSLRLICAASGRTFRYNAMGWYSQPHRKERELFAAINGGGSTYYADTVKGRFTISRDNAKNTVFLQMKSLKPEDTAVYYCAAANWRRNDYRYRFDYWGQGTQVTVSS	high polyreactivity
QVQLVESGGGLVQAGGSLRLSCAASGSILYTNAMGWYRQAPGKERELVAAITTSGASTYYADSVKGRFTISRDNAKNTVYLQMNSLKPEDTAVYYCAAPSRYRYYWGNYWGQGTQVTVSS	high polyreactivity
QVQLVESGGGLVQAGGSLRVSCAASGSTFSAYAMGWYRPAPGKERELVAAISASGGSTYYADSVKGRFTISRDNAKNTVSLQMNSLKPEDTAVYYCNADRWKYELDYWGQGTQVTVSS	high polyreactivity
QVQLVESGAGLVQAGGSLRLSCAASGRTFRPNPMGWYRPAPWKDRELVASITSGGRTNYADSVKGRFTISRDNAKNTVYLQMNSLKPEDTAVYYCAADHYHGYWKYDYWGQGTQVTVSS	low polyreactivity
QVQLVESGGGLVQAGGSLRLSCAASGSTYENAMGWYRQAPGKERELVAVISRSGGSTYYADSVKGRFTISRDNAKNTVYLQMNSLNPEDTAVYYCATVYSAWSWVHGYYVAMDYWGQGTQVTVSS	high polyreactivity
QVQLVESGGGLVQAGGSIRLSCAASGRTFVPYVMGWYIQAPGKERELVATINWSGGSTYYADSVKGRFSISRDNAKNTVYLQMNSLKPEDTADYYCDARYYSDWFYYLFRYDYWGQGTQVTVSS	low polyreactivity
QVQLVESGGGLVQAGGSLRLSCAASGRTFSRYAMGWYRQAPGKERELVASITSRGGSTYYADSVKGRFTISRDNAKNTVYLQMNSLKPEDTAVYYCNVKPTYSTRYWEDYWGQGTQVTVSS	high polyreactivity
QVQLVESWGGLVQAGGSLRLSCAASGNTFIEYAMGWYRQAPGKERELVAAINWNGGSTYYADSVKGRFTISRDNAKNTVYFQMNSLTPEDTAVYYCAADTFRLYGALAEYDYWGQGTQVTVSS	low polyreactivity
QVHLVESCGGLVQARGSLRLSCAASGSTIDYNSMGWYRLAPWKEREMVATITSSVGSTYYEDSVKGRYTISRDNAKNTVDLHMNCVKPEDTAVYYCAADYDYPDYYAPSWRRYTYWGQGTQVTVSS	low polyreactivity
QVQLLETGGGLVQAGGSLRLSCAPSGFTIYRYAMGWYKQAPGKERELVAAISSGTSTYYADTVKGRFTISRDNAKKTVYLQINSLKPEVTEVYYCAVAGVSLYGTLYDYWGLGTQVTVSS	high polyreactivity
QVQLVESGGGLVQAGGSLRLSCAASGNIFGIYAMGWYRQAPGKERELVAAIRGRGASTYYADSVKGRFTISRDNAKNTVYLQMNSLKPEDTAVYYCAVDVPLSRYWWRRTYDYWGQGTQVTVSS	low polyreactivity
QVQLEESGGGLVQAGGSLRLSCAASGFTFWLYAMGWYRQAPGKEREFVAAISTSGGSTYADSVKGRFTISRDNAKNTVYLQMNSLKPEDTAVYYCNAGYLLYYDYHLFYWGQGTQVTVSS	low polyreactivity
QVQLVESGGGLVQAGRSLRISRAASGSIFYKNVMGWYRQAPGKERELVAAITSGGSTYYADSVKGRFTISRDNAKNTVYFQMNSVYPEYSAVYYWAAGFGRNPVSRYYWGQGTQVTVSS	high polyreactivity
QVQLVESGGGLVQAGGSLRLSCAASGIIFGFNAMRWYRQAPGKEREFVADITYSGGSTYYADSVKGRFTISRDNAKNTVYLHMNSLKPEDTAVYYCAADEVSFWGYIYDYWGQGTQVTVSS	high polyreactivity
QVQLVESGGGLVQEGGSLRLSCAASGSTFKYYAMGWYRQAPGKERELVAAISKGATRTYYADSVKGRFTISRDNAKNTVYLQMNSLKPEDTAVYYCAARGRWNVPARRDYWGQGTQVTVSS	high polyreactivity
QVQLVESGGGLVQAGGSLRLSCAASGYTFSHYAMGWYRQAPGKERELVAGITWSGGSTYYADSVKVRFTISRDNAKNTVYVQMNSLKPEDTSVYYCAAKYYWYYSYSGIPLFDYWGQGTQVTVSS	low polyreactivity
QVQLVESGGGLVQAGGSLRLSCAASGRIFNQYGMGWYSQARGKERELVAAIRSGDSTNYADSVKGRFTISRDNAKNTVYLQMNSLKPEDTAVDYCARDRPGDYAGYDYWGQGTQVTVSS	low polyreactivity
QVQLVESGGGLVQAGGSLRLSCAASGITFPYYAMGWYRQAPGKERELVAAISDGGSTNYADSVKGRFTISRDNAKNTVYLQMNSLKPEDTAVYYCAADYRYLFDYWGQGTQVTVSS	high polyreactivity

Sequence	polyreactivity (PSR sort gate)
QVQLVESGGGLVQAGGSLRLSCAASGITFPSYVMGWYRQAPGKEREFVAAITGSAGSTYYADSVKGRFTISRDNAKYTVYLQMNSLKPEDTAVYYCAARVRYVNPKYYYWGQGTQVTVSS	high polyreactivity
QVQLVESGGGLVQAGGSLRLSCAASVYTIGLYAMGCYRQAPGKEMELVAAMSWSGGSTYYADSVKGPFTISRDNAKKTVYLQMNSLKPEDTAVYYCAAVPYFSLEMGYWGQGTQVTVSS	low polyreactivity
QVQLVESGGGLVQAGGSLRLSCAASGRTFPVYAMGWYRQAPGKERELVAGITGSGGRTYYADSVKGRFTISRDNAKNTVYLQMNSLKPEDTAVYYCAADRNLYWYQHEYCGQGTQVTVSS	low polyreactivity
QVQLVESGGGLVQAGGSLRLSCAASGSTFWGNAMGWYRQAPGKERELVAAIDWSGGRTYYADSVKGRFTISRDNAKNTVYLQMNSLKPEDTAVYYCATRAWRGYGPYDYWGQGTQVTVSS	high polyreactivity
QVQLVESGGGLVQAGGSLRLSCAASGYTFSWYAMGWYRQAPRKERELVAGIDTSGGSTYYADSVKGRFTISRDNAKNTVYLQMNSLKPEDTAVYYCAAGLLWYSWGFWYYEYGYWGQGTQVTVSS	low polyreactivity
QVQLVESGGGLVQAGGSLRLSCAASGHTFRFYTMGWSRQAPGKEREFVAAIRRRTGSTYYADSVKGRFTISRDNAKNTVYLQMNSLKPEDTAVYYCNAVGDARYNYWGQGTQVTVSS	high polyreactivity
QVQIVESGGGLVQAGGILRLSCAASVITFGYYAMGWYSQAPGKEWELVAAISRSGGNTRYADSVKGRFTISRDNAKNTVYLQMNSLTPEDTAVYYCAAYSRYTRTFPLFSGSRYGYWGHGTQVTVSS	high polyreactivity
QVQLVESGGGLVQAGGSLRLSCAASGRILIVNTMGWYRQAPGKERELVAAISSGGTTYYADSVKGRFTISRDNAKNTVYLQMNSLKPEDTAVYYCAAKRAGAEYDYWGQGTQVTVSS	high polyreactivity
QVQLVESGGGLVQAGGSLRLSCAASGSTFWYYTMGWYRPAPGKERELVAGITSGGSTYYADSVKGRFTISRDYANNTVYLQMNSLKPEDTAVYYCTFYWYNYWGQGTQVTVSS	high polyreactivity
QVQLVESGGGLVQAGGSLRLSCAASGSILLAYVMGWYRPAPGKERELVAAISSGDDTKYADSVKGRFTISRDNAMNTVYLQMNSLKPEDTAVYYCNAYTLDYPYHRFGYWGQGTQVTVSS	low polyreactivity
QVQLVESGGGLVQAGGSLRLSCAASGRIFIAYAMGWYRQAPWKEREFVAAISSRGGSTYYADSVKGRFTISRDNAKNTVYLQMNSLKPEDTAVYYCGAWTLYWSHTTWSYDYWGQGTQVTVSS	low polyreactivity
QVQLVESGGGLVQAGGSLRLSCAASGSIFLIYAMGWYRQAPGKERELVATINRGDNTYYADSVKGRFTISRDNAKNTVYLQMNSLKPEDTAVYYCAARAYDLGYAGYDYWGQGTQVTVSS	low polyreactivity
QVQLVESGGGLVQAGGSLRLSCAASGRIFAYNALGWYRQAPGKERELVAAISWSGSSTYYADSVKGRFTISRDNAQNRVYLQMNSLTPEDTAVYYCAATPWYYYSTSYAYYDWGQGTQVTVSA	high polyreactivity
QVQHVESGGGLVQAGGSLRLSCAASGRTFALNAMGWYRQAPGKERELVAAISWSSGRTYYADSVKGRFTISRDNAKNTVYLQMNSLKPEDTAVYYCAALVAHKGDYWGQGTQVTVSS	high polyreactivity
QVQLVESGGVLDQARGSLRLSCAASGRIFGYNAMGWYRQAPGKERELVAAISWGGGRTYYADSVKGRFTISRDNAKNTVYLQMNSLKPEDTAVYYCNALYVGYYDSMGYWGQGTQVTVSS	high polyreactivity
QVQLEESGGGLVQAGGSLRLSSAASGTISATYAMGWYRQAPGKERELVAAISRNGGSTYYADSVKGRFTISRDNAKNTVYLQMNSLKPEDTAVYYCATSSSKSMYWGQGTQVTVSS	high polyreactivity
QVQLVESGGGLVQAGGSLRLSCAASGRTFYQYTMGWYRQAPGKERELVAAITTSTGNTYYADSVKGRFTISRDNAKNTDYLQMNSLKPEDTAVYYCAADTVWRLDYWGQGTQVTVSS	low polyreactivity
QVQLVESGGGLVHAGGSLRLSCAASGRTFQWNRMVWYRQAPGKERELVATIRRGGSTNYADSVKGRFTISRDNAKNTVYLQMNSLKPEDTAVYYCAADRRYPGGWGFEYNYWGQGTQVTVSS	low polyreactivity
QVQLVESGGGLVQAGGSLRLSCAASGRTFGGNAMGWYRQAPGKERELVAAISRSGGRTYYADSVKGRFTISRDNAKNTVYLQMNSLKPEDTAVYYCAAKYQYTQYDYWGQGTQVTVSS	high polyreactivity
QVQLVESGGGLVQAGGSLRLSCAASGIIFLDNAMGWYRQAPGKERELVAAITTGGITYYADSVKGRFTISRDNAKNTVYLQMNSLKPEDTAVYYCAADNEWPRYDYWGQGTQVTVSS	low polyreactivity
QVQLVESGGGLVQAGGSLRLSCAASGSISYYNAMGWYRQAPGKERELVATITDSGGSTYYADSVKGRFTISRDNAKNTVYLQMNSLKPEDTAVYYCNADYWAVNYDYWGQGSQVTVSS	low polyreactivity
